Results from the supplement of paper PMC7877785.
± gives the uncertainty stated by the source.

Assay: self-splicing fitness, log relative to wild type (ln ratio); higher = more splicing; Tetrahymena group I intron in knt gene, E. coli kanamycin selection, DiMSum; sequences stand for … in CUCUCU…GGAGGGAAAAGUUAUCAGGCAUGCACCUGGUAGCUAGUCUUUAAACCAAUAGAUUGCAUCGGUUUAAAAGGCAAGACCGUCAAAUUGCGGGAAAGGGGUCAACAGCCGUUCAGUACCAAGUCUCAGGGGAAACUUUGAGAUGGCCUUGCAAAGGGUAUGGUAAUAAGCUGACGGACAUGGUCCUAACCACGCAGCCAAGUCCUAAGUCAACAGAUCUUCUGUUGAUAUGGAUGCAGUUCACAGACUAAAUGUCGGUCGGGGAAGAUGUAUUCUUCUCAUAAGAUAUAGUCGGACCUCUCCUUAAUGGGAGCUAGCGGAUGAAGUGAUGCAACACUGGAGCCGCUGGGAACUAAUUUGUAUGCGAAAGUAUAUUGAUUAGUUUUGGAGUACUCGUGGUCG
Method in brief: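 The eight P1ex-region nucleotides of an intron in the knt kanamycin-resistance gene on pET-22b(+) were all randomised and the library put into E. coli BL21(DE3). Six replicate transformations were grown overnight at 37°C or 30°C on LB agar with or without 25 μg/mL kanamycin, together with 100 μg/mL carbenicillin, 50 μM IPTG and 0.2% rhamnose. Colonies were pooled and amplicon-sequenced on an Illumina HiSeq 2500. Fitness from DiMSum is the error-weighted combination of wild-type-normalised replicate fold changes, kanamycin over none.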

Sequence	self-splicing fitness (ln) (30 °C)	self-splicing fitness (ln) (37 °C)
CGACAGCAAUAUUACGGAGU	-3.91 ± 0.2	-2.53 ± 0.14
AACUAGCAAUAUUACGAUCC	0.0588 ± 0.16	0.358 ± 0.19
CAAUAGCAAUAUUACGGUAA	-2.8 ± 0.14	-2.81 ± 0.18
AGGUAGCAAUAUUACGCUCC	-3.31 ± 0.052	-2.43 ± 0.064
CGUAAGCAAUAUUACGGAGA	-2.79 ± 0.24	-2.28 ± 0.29
UGCAAGCAAUAUUACGGAUG	-1.25 ± 0.065	-0.565 ± 0.078
CUGCAGCAAUAUUACGCACA	-2.82 ± 0.19	-1.48 ± 0.19
UGGUAGCAAUAUUACGGUCA	-0.695 ± 0.097	-0.176 ± 0.1
UGCUAGCAAUAUUACGAAUG	-0.8 ± 0.1	0.288 ± 0.16
AACAAGCAAUAUUACGAGUG	-0.911 ± 0.049	-0.0361 ± 0.07
CUUAAGCAAUAUUACGUUAU	-3.09 ± 0.14	-2.51 ± 0.2
AGGGAGCAAUAUUACGCGCU	-2.13 ± 0.23	-0.719 ± 0.39
GGUUAGCAAUAUUACGGGUG	-1.7 ± 0.1	-1.08 ± 0.12
GACGAGCAAUAUUACGAGUG	-4.04 ± 0.31	-2.63 ± 0.19
AUUUAGCAAUAUUACGGAUG	-1.94 ± 0.14	-1.91 ± 0.2
CGAAAGCAAUAUUACGCUUC	-2.95 ± 0.38	-2.01 ± 0.39
CUGAAGCAAUAUUACGCACU	-4.4 ± 0.39	-1.32 ± 0.18
GCUAAGCAAUAUUACGAGCU	-2.25 ± 0.33	-0.165 ± 0.31
GGGAAGCAAUAUUACGAGUA	–	-2.29 ± 0.36
UAACAGCAAUAUUACGUCUC	-3.01 ± 0.12	-3.02 ± 0.2
AAAAAGCAAUAUUACGUUAG	-3.37 ± 0.17	-2.61 ± 0.16
GGCUAGCAAUAUUACGGUUG	-0.166 ± 0.076	-0.197 ± 0.098
ACUAAGCAAUAUUACGCUCA	-0.894 ± 0.12	-0.989 ± 0.14
GGAAAGCAAUAUUACGCCUG	-1.73 ± 0.34	–

Sequence	self-splicing fitness (ln) (30 °C)	self-splicing fitness (ln) (37 °C)
UUCAAGCAAUAUUACGGCGA	0.0413 ± 0.081	0.263 ± 0.11
CGUGAGCAAUAUUACGUAUU	-3.5 ± 0.4	-3.11 ± 0.35
CAUUAGCAAUAUUACGAGGG	-3.1 ± 0.18	-2 ± 0.21
UGGGAGCAAUAUUACGUCUA	-1.22 ± 0.12	-0.187 ± 0.16
ACGAAGCAAUAUUACGCCCG	-0.0902 ± 0.13	-0.0289 ± 0.14
AACCAGCAAUAUUACGAAUC	-1.65 ± 0.094	-0.882 ± 0.1
AUCGAGCAAUAUUACGGUAA	-2.41 ± 0.29	-3.15 ± 0.35
AUAUAGCAAUAUUACGGCGU	-0.109 ± 0.11	-0.16 ± 0.12
GCUCAGCAAUAUUACGAUGC	-1.47 ± 0.12	-0.954 ± 0.15
ACACAGCAAUAUUACGCGUU	-4.3 ± 0.16	-2.29 ± 0.14
CGUGAGCAAUAUUACGCACG	-3.19 ± 0.29	-2.94 ± 0.47
CUUGAGCAAUAUUACGUGUA	-2.71 ± 0.14	-2.84 ± 0.2
GCUAAGCAAUAUUACGUUCU	-1.04 ± 0.052	-0.467 ± 0.066
CACAAGCAAUAUUACGCGUU	-2.55 ± 0.098	-1.3 ± 0.091
AGAAAGCAAUAUUACGCAAU	-2.18 ± 0.072	-0.965 ± 0.075
GUAUAGCAAUAUUACGGAUU	-2.58 ± 0.14	-0.56 ± 0.13
UCGAAGCAAUAUUACGAGCG	-1.04 ± 0.078	-0.114 ± 0.094
AACUAGCAAUAUUACGUGCC	-1.39 ± 0.12	-0.755 ± 0.13
GAUGAGCAAUAUUACGAGUU	-2.18 ± 0.22	-1.47 ± 0.24
GCUCAGCAAUAUUACGGCUG	-2.99 ± 0.29	-2.1 ± 0.34
GGCUAGCAAUAUUACGUACG	-0.805 ± 0.1	0.365 ± 0.11
GCGAAGCAAUAUUACGCAUA	-1.92 ± 0.2	-1.76 ± 0.16
CCUAAGCAAUAUUACGUGCG	-2.59 ± 0.13	-1.03 ± 0.12
AACGAGCAAUAUUACGGGGG	-3.29 ± 0.26	-3.01 ± 0.37
